Assay results: article PMC12146755

Assays:
[1] = target: Her2 (antigen of the surface plasmon resonance) (human) (UniProt P04626); assay: SPR; conditions: bispecific antibody
[2] = target: CD3ε (antigen of the surface plasmon resonance) (human) (UniProt P07766); assay: SPR; conditions: bispecific antibody
Target sequence in this assay (P07766 23-126): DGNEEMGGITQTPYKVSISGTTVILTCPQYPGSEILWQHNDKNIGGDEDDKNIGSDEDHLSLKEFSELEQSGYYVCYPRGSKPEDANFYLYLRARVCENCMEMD

[3] = target: CD3ε (antigen of the surface plasmon resonance) (human) (UniProt P07766); assay: SPR; format and conditions not given in the main text (SI Appendix, Fig. S1 D-F)
Target sequence in this assay (P07766 23-207): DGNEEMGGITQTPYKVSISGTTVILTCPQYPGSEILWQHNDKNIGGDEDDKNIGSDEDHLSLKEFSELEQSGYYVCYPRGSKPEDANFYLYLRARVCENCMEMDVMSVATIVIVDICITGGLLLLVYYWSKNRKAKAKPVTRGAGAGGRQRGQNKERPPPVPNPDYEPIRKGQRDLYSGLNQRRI

Substance | Kd [1] | Kd [2] | Kd [3]
Bispecific T cell engager Format B (anti-Her2 x anti-CD3ε, IgG1-based) (from UniProt P01857) | 0.249 nM | 4.2 nM | –
Bispecific T cell engager Format C (anti-Her2 x anti-CD3ε, IgG1-based) (bispecific antibody) | – | – | < 10 nM
Bispecific T cell engager Format B (anti-Her2 x anti-CD3ε, IgG1-based) (bispecific antibody) | – | – | < 10 nM
Bispecific T cell engager Format A (anti-Her2 x anti-CD3ε, IgG1-based) (from UniProt P01857) | 0.156 nM | 3.8 nM | –

Now from value to substance:

Kd [1] | Kd [2] | Kd [3] | Substance
0.086 nM | 5.4 nM | – | Bispecific T cell engager Format C (anti-Her2 x anti-CD3ε, IgG1-based) (from UniProt P01857)
– | – | < 10 nM | Bispecific T cell engager Format A (anti-Her2 x anti-CD3ε, IgG1-based) (bispecific antibody)
